For test [1], the target named is catalytic domain of human MMP-9 (cdMMP-9) (human) (UniProt P14780). Put plainly: biolayer interferometry, biotinylated protease on streptavidin sensor, Fab in solution.
Test [2] has the same target. Put plainly: FRET peptide substrate inhibition assay, K1=IC50/(S/Km+1).
For test [3] the target is unchanged. Put plainly: cell-based or functional assay.
Test [4] has the same target. Put plainly: inhibition of cdMMP-9 proteolytic activity, FRET peptide substrate.
Test [5] has the same target.
Test [6] shares this target. Put plainly: biolayer interferometry, biotinylated cdMMP-9 on streptavidin biosensors, Fab in solution. For orientation: In BLI a coated tip is dipped into the sample, and binding shifts an interference pattern.
The target is the same in test [7]. Put plainly: biolayer interferometry, IgG on protein A sensor, protease in solution.

Changes are numbered by the printed parent chain.

UniProt P14780, sequence (P14780 other isoform, or with tags, fused parts or gaps limits assumed): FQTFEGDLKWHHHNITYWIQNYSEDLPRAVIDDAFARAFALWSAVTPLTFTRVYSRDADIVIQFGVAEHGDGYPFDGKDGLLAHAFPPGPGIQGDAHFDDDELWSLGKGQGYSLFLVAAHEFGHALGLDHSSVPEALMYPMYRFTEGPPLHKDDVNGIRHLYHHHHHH

B1: anti-MMP9 Fab L13 (Fab, V domains shown)
VH: EVQLVESGGGLVQPGGSLRLSCAASGFNISSSYIHWVRQAPGKGLEWVASISSSSGYTSYADSVKGRFTISADTSKNTAYLQMNSLRAEDTAVYYCARKYMVFGTRMGWVEHTDFAGQGYYAMDYWGQGTLVTVSS
VL: DIQMTQSPSSLSASVGDRVTITCRASQSVSSAVAWYQQKPGKAPKLLIYSASSLYSGVPSRFSGSRSGTDFTLTISSLQPEDFATYYCQQYAALITFGQGTKVEIKR
What is called Kd is the equilibrium constant for the complex coming apart. In general, IC50 refers to the midpoint of a concentration-inhibition curve. Read a high IC50 as weaker potency in that assay. The term koff denotes the first-order rate constant of dissociation. High values mean a short-lived complex, low ones a long-lived complex. A word on the kon: it is a measure of how fast the partners come together. A lower kon goes with slow association. In test [1], B1 returned an equilibrium dissociation constant (Kd) of 120 nM. The molecule further registered a Ki in test [2] of 150 nM. Further, the degradation of type I collagen by cdMMP-9 (SDS-PAGE) in test [3] was 4%. The same molecule yielded an IC50 in test [4] of 260 nM. For the same molecule, in test [5], the Km of cdMMP-9 on FRET peptide substrate at 63 nM Fab L13 (without Fab: 1.3) came to 3.3 µM, the Km of cdMMP-9 on FRET peptide substrate at 125 nM Fab L13 (without Fab: 1.3) stood at 4.6 µM, the Km of cdMMP-9 on FRET peptide substrate at 250 nM Fab L13 (without Fab: 1.3) is 5.1 µM and the Vmax of cdMMP-9 on FRET peptide substrate at 63 nM Fab L13 (without Fab: 1.3) is 0.7 ΔRFU/s. For the same molecule, in test [5], the Vmax of cdMMP-9 on FRET peptide substrate at 125 nM Fab L13 (without Fab: 1.3) is 0.7 ΔRFU/s and the Vmax of cdMMP-9 on FRET peptide substrate at 250 nM Fab L13 (without Fab: 1.3) is 0.6 ΔRFU/s. In test [6], this molecule showed a dissociation rate constant (koff) of 0.0044 s⁻¹ and a kon of 83000 M⁻¹ s⁻¹.

B2: anti-MMP9 Fab H3 (Fab, V domains shown)
VH: EVQLVESGGGLVQPGGSLRLSCAASGFNIYSSSMHWVRQAPGKGLEWVAYIYSSYGYTYYADSVKGRFTISADTSKNTAYLQMNSLRAEDTAVYYCARRFEPGLLKRNKRWISYTLCEAGYGMDYWGQGTLVTVSS
VL: B1 VL with Y91A, A92S, A93H
As for B2, the Kd in test [1] turned out to be 98 nM. The same molecule displayed a Ki in test [2] of 66 nM. In test [6], this molecule showed a koff of 0.0048 s⁻¹ and a kon of 49000 M⁻¹ s⁻¹.

B3: anti-MMP9 IgG H3 (antibody, V domains shown)
VH: B2 VH
VL: B1 VL with Y91A, A92S, A93H
In turn, B3 displayed a Ki in test [2] of 51 nM. In test [7], this molecule had a Kd of 71 nM. Besides, the IC50 in test [4] stood at 92 nM.

B4: anti-MMP9 IgG L13 (antibody, V domains shown)
VH: B1 VH
VL: B1 VL
Turning to B4, the Ki in test [2] was 110 nM. The Kd in test [7] came to 53 nM. Besides, the IC50 in test [4] amounted to 200 nM.

B5: anti-MMP9 Fab H25 (Fab, V domains shown)
VH: EVQLVESGGGLVQPGGSLRLSCAASGFNIYSSSMHWVRQAPGKGLEWVASIYSYYGYTYYADSVKGRFTISADTSKNTAYLQMNSLRAEDTAVYYCARCKLYTSYMIPVGSDSVNRCMSSYGMDYWGQGTLVTVSS
VL: DIQMTQSPSSLSASVGDRVTITCRASQSVSSAVAWYQQKPGKAPKLLIYSASSLYSGVPSRFSGSRSGTDFTLTISSLQPEDFATYYCQQGGGASLITFGQGTKVEIKR
B5 returned a Kd in test [1] of 450 nM. The Ki in test [2] was 290 nM. This molecule gave an IC50 in test [4] of 520 nM. Further, in test [6], the koff is 0.031 s⁻¹ and the kon was found to be 69000 M⁻¹ s⁻¹.

The values are drawn from patent publication US20230074615A1.
